Here are results for one substance from PMC11261718.

The target in the assay is West Nile virus NS5 protein, wild-type, with a C-terminal Flag tag (UniProt P06935). The assay is described as follows: co-immunoprecipitation (NS5-Flag IP, western blot for NS3-myc). The conditions noted are these: parent: 100. Background: A western blot detects proteins with antibodies after separation by electrophoresis.

Regarding “West Nile virus NS3 protein, wild-type, with a C-terminal myc tag (from UniProt P06935) R186A”, the percent of parent (IP with RNase) is 69% and the percent of parent (IP without RNase) was 107%.
